In patent US20260209363A1 (Chugai, published 2026):

Target: T1, Mouse MOG (R&D system) (mouse, UniProt Q61885 29-156, limits assumed)
T1 construct: also called mouse soluble MOG; soluble MOG
T1 sequence (looked up): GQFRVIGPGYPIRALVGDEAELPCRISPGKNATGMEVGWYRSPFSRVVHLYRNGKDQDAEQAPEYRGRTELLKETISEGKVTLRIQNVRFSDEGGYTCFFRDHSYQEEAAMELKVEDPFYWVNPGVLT
Assay: SPR (Biacore T200), antibody captured by anti-human Fc antibody, mouse MOG as analyte, 25 degrees C, no albumin
Experimental: Binding activities of the antibodies produced in Example 10 against mouse MOG were assessed using Biacore T200 (Cytiva).
As the running buffer, 50 mM Na Phosphate (pH 7.4), 150 mM NaCl, 0.05% Tween 20, and 0.005% NaN₃ was used, and the assessment was performed at 25 degrees C. First, anti-human Fc antibody (Cytiva) was used as a ligand-capturing molecule. Anti-human Fc antibody (Cytiva) was solid-phased on a Series S Sensor Chip CM4 (Cytiva) using an Amine Coupling Kit (Cytiva). Antibody solutions prepared using the running buffer was allowed to interact with this CM4 sensor chip to capture approximately 480 RU of the antibody. Mouse MOG (R&D system) was diluted to 0, 10, 40, 160, and 640 nM with the running buffer, and then bound to the captured antibody. The chip was regenerated using 3 M MgCl₂, and measurements were performed by repeatedly capturing antibodies. Dissociation constant (KD) of the respective antibodies for mouse MOG was calculated using Biacore T200 Evaluation Software 2.0. Specifically, the association rate constant ka (L/mol/s) and the dissociation rate constant kd (1/s) were calculated by global fitting of the sensorgrams obtained by measurement with the 1:1 Langmuir binding model, and the dissociation constant KD (mol/L) was calculated from these values.

- Kd: 452 pM
- koff: 6.99e-05 s⁻¹
- kon: 155000 M⁻¹ s⁻¹
B1: MOG//IC17 (bispecific antibody, human IgG1, kappa)
heavy 1: RVTLRESGPTLVKPTQTLTLTCTFSGFSLSTSGVGVGWIRQPPGKALEWLALIFWDDDSHYSPSLKSRLTITKDTSKNQVVLTMTNMDPVDTATYYCARYYFGSGSYFPSYWYFDLWGRGTLVTVSSASTKGPSVFPLAPSSKSTSGGTAALGCLVEDYFPEPVTVSWNSGALTSGVHTFPAVLQSSGLYSLSSVVTVPSSSLGTQTYICNVNHKPSNTKVDERVEPKSCDKTHTCPPCPAPELRRGPSVFLFPPKPKDTLMISRTPEVTCVVVDVSHEDPEVKFNWYVDGVEVHNAKTKPREEQYNSTYRVVSVLTVLHQDWLNGKEYKCKVSNKALPAPIEKTISKAKGQPREPQVCTLPPSREEMTKNQVSLSCAVKGFYPSDIAVEWESNGQPENNYKTTPPVLDSDGSFFLVSKLTVDKSRWQQGNVFSCSVMHEALHNHYTQKSLSLSP
light 1: not shown
heavy 2: not shown
light 2: QVQLQQSGPQLVRPGASVKISCKASGYSFTSYWMHWVNQRPGQGLEWIGMIDPSYSETRLNQKFKDKATLTVDKSSSTAYMQLSSPTSEDSAVYYCALYGNYFDYWGQGTTLTVSSASVAAPSVFIFPPSDEQLKSGTASVVCLLNNFYPREAKVQWKVDNALQSGNSQESVTEQDSKDSTYSLSSTLTLSKADYEKHKVYACEVTHQGLSSPVTKSFNRGEC
notes: also called MOG307//IC17; IC17//MOG307
